Substrate in this data set: O=C(CO)[C@H](O)[C@H](O)COP(=O)(O)O
In words: purified protein, by the assay type. More on the design: Recombinant RPIB isomerase kinetics, R5P to Ru5P (direct) or Ru5P to R5P (reverse). From the text:
LiRPIB and LmRPIB recombinant proteins, containing a 6-histidine N-terminal tag, were expressed in Escherichia coli and purified by affinity chromatography under native conditions. Coomassie blue is represented in Fig. 1b, showing that both proteins have the predicted MW for the monomer (LiRPIB ~20.83, LmRPIB ~20.78 kDa). […] Additionally, recombinant LiRPIB was used to immunise rabbits to produce polyclonal anti-LiRPIB antibodies. Those antibodies recognise the recombinant protein and a single band in an extract of L. infantum promastigotes with the expected MW (~18.6 kDa, [web.expasy.org/protparam]) (Fig. 1c). […] The reverse reaction, which generates R5P, seems to be favoured, with both enzymes presenting lower Km values and higher vmax and kcat.

Data on 2 proteins can be found in publication PMC4882579, “Disclosing the essentiality of ribose-5-phosphate isomerase B in Trypanosomatids” (Scientific Reports, 2016).

One may read the Km as the concentration of substrate that gives half-maximal velocity. A word on the Vmax: it is the top rate of the reaction or transport when substrate is in excess. By kcat is commonly meant the maximal rate divided by the concentration of active sites.

B1: LiRPIB (Leishmania infantum) (protein)
chain: MPKRVALGCDHAAYATHQEIMDMVNASGAASKVMYMGPSSDTSVDYPDYAAQVCEAILKGEADTGILVCGTGIGMSIAANKFRGIRAALCYDHVTAQLSRQHNNAHILCIGVRTSGMEVIRDIIETFLTTEPLAEGRHGNRVDKITVIEEEQMKDEQRWCFSGCGGLKEEGK
Turning to B1, the Km was determined as 2820 ± 300 µM, the Vmax was 930 µM/min and the catalytic constant (kcat) amounted to 115 ± 3.86 s⁻¹.

B2: LmRPIB (Leishmania major) (protein)
chain: MSKRVALGCDHAAYAAHREIMDMISASGAVSKVMYMGPSSDTSVDYPDYAAQVCEAILKGEADAGILVCGTGIGMSIAANKFRGIRAALCYDHVTAQLSRQHNNAHILCIGVRTSGMEIIRDIITTFLTTEPLAEGRHSNRVDKITVIEEEQMKDEQRCCFSGCGGRKEEGK
Take B2: the Km amounted to 3010 ± 540 µM, the Vmax was 1040 µM/min and the kcat stood at 128 ± 7.33 s⁻¹.
